In the assay the target is GLUT4 template complex Munc18-3:Syntaxin-4:VAMP2 (rat | not stated) (UniProt Q08850). The assay can be described thus: optical tweezers.

B1: full-length cysteine-free SNAP-23 ([change], [change], [change], [change], [change]) (natural protein)
chain: MDDLSPEEIQLRAHQVTDESLESTRRILGLAIESQDAGIKTITMLDEQGEQLNRIEEGMDQINKDMREAEKTLTELNKSSGLSVSPSNRTKNFESGKNYKATWGDGGDSSPSNVVSKQPSRITNGQPQQTTGAASGGYIKRITNDAREDEMEENLTQVGSILGNLKNMALDMGNEIDAQNQQIQKITEKADTNKNRIDIANTRAKKLIDS
With B1, the probability of SNAP-23 binding turned out to be 0.42.

Source of the values: publication PMC9894263.
